According to patent US20060105442, “Promoters and proteins from Clostridium thermocellum and uses thereof” (published 2006):

Biological target: T1, rGlyR3 (CelR3) (Clostridium thermocellum)
T1 chain: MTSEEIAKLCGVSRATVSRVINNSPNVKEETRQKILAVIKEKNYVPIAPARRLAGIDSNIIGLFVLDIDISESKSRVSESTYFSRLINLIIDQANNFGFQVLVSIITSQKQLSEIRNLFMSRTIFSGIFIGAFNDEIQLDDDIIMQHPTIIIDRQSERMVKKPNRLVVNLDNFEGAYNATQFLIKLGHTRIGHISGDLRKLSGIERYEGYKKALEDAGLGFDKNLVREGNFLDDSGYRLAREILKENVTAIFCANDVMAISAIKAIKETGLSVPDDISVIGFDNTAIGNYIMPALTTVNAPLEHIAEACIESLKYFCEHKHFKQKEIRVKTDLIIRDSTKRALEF
Assay: EMSA; dose dependent; inhibited by laminaribiose

B1: 18 bp GlyR3 binding site (dsDNA)
DNA 1: AATGAACGCGCGTACATT
DNA 2: AATGTACGCGCGTTCATT
B1: binds.
